Test results published in paper PMC10310011, “Accelerated absorption of regular insulin administered via a vascularizing permeable microchamber implanted subcutaneously in diabetic Rattus norvegicus” (PLOS ONE, 2023).

Details: rat, in vivo
From the text: Male athymic nude R. norvegicus between 9–12 weeks of age and weighing 250–350 g were purchased from Envigo (Livermore, CA, USA). Because estrogen interferes with streptozotocin [44] (see next), only male animals were included. Athymic nude rats were chosen to abrogate a possible antibody response against the human insulin to be injected. Animals were housed for a seven-day acclimatization period before initiating any experimental procedures. To avoid endogenous insulin in subject rats from cross-reacting in the human insulin assays, animals were rendered diabetic by a single intraperitoneal injection, 60 mg/kg, of streptozotocin (Sigma-Aldrich, St. Louis, MO, USA). Blood glucose concentrations were monitored daily using a Freestyle Lite Glucose Monitoring System (Abbott Diabetes Care Inc., Alameda, CA, USA). Rats were considered diabetic when blood glucose concentrations greater than 200 mg/dl were recorded on three consecutive days. Rats verified as diabetic were maintained with exogenous long-acting insulin (Lantus, Sanofi-Aventis, Bridgewater, NJ, USA) throughout the study; maintenance insulin treatment also serves to forestall insulin resistance. Maintenance insulin therapy was suspended for 24 hours prior to each insulin kinetics study. Two days after the initial insulin-kinetics assay two empty, 1.5 cm^2 per side, single-chamber (having a nominal internal volume of 22.5 μl), implantable vascularizing microchambers, IVMs (Procyon Technologies LLC, Tucson, AZ, USA) (Fig 1A) were implanted subcutaneously on the dorsal aspect of each rat. The initial insulin kinetics assays were performed 7 days after STZ induction of diabetes. […] Plasma samples collected from each insulin kinetics assay were analyzed for human insulin concentration using a commercial human insulin ELISA kit (Alpco, Salem, NH, USA). […] The measured insulin concentrations were converted from IU/ml to μg/ml according to the manufacturer’s recommended conversion ratios of 1 IU of human insulin = 6nmol = 34.8 μg of insulin. […] The mean and standard deviation (SD) for each category were then calculated. […]

insulin human
Plasma insulin curves after SC injection, diluted versus stock concentration: did not vary significantly | 95% CI of Tmax (sc): 13.18 to 32.27 min | Tmax (mean peak time of plasma insulin) (sc): 22.7 min
